# Target: soluble C-terminally truncated HAP2 ectodomain (HAP2e), residues 23-592, Chlamydomonas reinhardtii (Chlamydomonas reinhardtii) (UniProt A4GRC6)
# Experiment: SEC-MALS
substance,measurement,value
"soluble C-terminally truncated HAP2 ectodomain (HAP2e), residues 23-592, Chlamydomonas reinhardtii (from UniProt A4GRC6 23-592) (domain or fragment)",stoichiometry N,6

# — article PMC5332557
